Test results as given in the RNAGym collection of RNA variant scans (doi:10.7554/elife.90254).

B1: LINE1-mini (parent)
chain: GGCAGAGCUCAACACAGCGUGGCAAAGUGGCUGUGGCUAGACUGCC

Variants of: B1
Experiment: self-cleavage, relative activity (ratio to wild type); higher = more cleavage; in vitro, sequencing; the parent is a self-cleaving ribozyme

Row | Variant | self-cleavage
1 | GGCAGAGCUCAACACAGUGUGGCAAAGUUGCUGUGGCUAGACUGCC | 1.87
2 | GGCAGAGCACAACCCAGCGUGGCAAAGUGGCUGUGGCUAGACUGCC | 0.04
3 | GGCAGAGCUCAACUCAGCGUGGCAAAGUAGCUGUGGCUAGACUGCC | 0.98
4 | GGCAGAGCUCAACACAGCGUGGCAAAGCGCCUGUGGCUAGACUGCC | 0.64
5 | GGCAGAGCUCUACACAGUGUGGCAAAGUGGCUGUGGCUAGACUGCC | 0.32
6 | GGCAGAGCACAACACAGCGUGGCAAAAUGGCUGUGGCUAGACUGCC | 0.1
7 | GGCAGAGCUCAACACCGCGUGCCAAAGUGGCUGUGGCUAGACUGCC | 0.09
8 | GGCAGAGCUCAACACAGCGUGGAAAAGUGGCUGUGGCUAGACUCCC | 0.51
9 | GGCAGAGCUCAACACAACGUGGCACAGUGGCUGUGGCUAGACUGCC | 0.07
10 | GGCAGAGCUCAACACAGCGCAGCAAAGUGGCUGUGGCUAGACUGCC | 0.8
11 | GGCAGAGCUCAACAUAGCGUGGCAAAGUGGCUGUGGCUCGACUGCC | 0.18
12 | GGCCGAGCUGAACACAGCGUGGCAAAGUGGCUGUGGCUAGACUGCC | 0.03
13 | GGCAGAGCUCAACACAGCGUGGCAAAGGGGCUGUGGCUAGACUGUC | 0.92
14 | GGCAGAGCUCAACACAACGUGGCAAAGUGGCUGUGGCUAGACGGCC | 0.05
15 | GGCAGAGCUCAACACAGCGUGGCAAAGUGACAGUGGCUAGACUGCC | 0.13
16 | GGCAGAGCUCAACACAGCGUGGCAAAGUGGCUGUUACUAGACUGCC | 0.16
17 | GGCAGAGCUCAACACAGCGUGGCAAAGUGGCUGUGGCUAUACUGCU | 0.11
18 | GGCAGAGCUCAACACAGCGUGGCAAAGUGUCUGUGGCUAGACUUCC | 0.21
19 | GGCAGAGCUCAUCACAGCGUGGGAAAGUGGCUGUGGCUAGACUGCC | 0.26
20 | GGCAGGGAUCAACACAGCGUGGCAAAGUGGCUGUGGCUAGACUGCC | 0.15
21 | GGCAAAGCUCAACACAGCGUGGGAAAGUGGCUGUGGCUAGACUGCC | 0.29
22 | GGCUGAGCUCAACACAGCGUGGCAAAGUGGCUAUGGCUAGACUGCC | 0.07
23 | GGCAGAGCUCAACACAGCGUGGCAAAGUGGCCGUGGCUAGACCGCC | 0.05

Row | Variant | self-cleavage
24 | GGAAGAGCUCAACACAGCGUGGAAAAGUGGCUGUGGCUAGACUGCC | 0.61
25 | CGCAGAGCUCAACACAGCGUGGCAAAGUGGUUGUGGCUAGACUGCC | 0.04
26 | GACAGAGCUCAACACAGCGUGGAAAAGUGGCUGUGGCUAGACUGCC | 1.04
27 | GGCAGAGCUCAACACAGCGUGGCAAAGUGGCUGUUGGUAGACUGCC | 0.05
28 | GGCAGAGCUUAACACAGCGUGGCAAAGUGCCUGUGGCUAGACUGCC | 0.36
29 | GGCUGAGCUCAACACAGCGUGGCAAAGUGGCUGUGGCUAGACUGAC | 0.1
30 | GGCAGAGCUCAAAACAGCGGGGCAAAGUGGCUGUGGCUAGACUGCC | 0.1
31 | CGCAGAGCUCAACACAGCCUGGCAAAGUGGCUGUGGCUAGACUGCC | 0.04
32 | GGCAGAGCUAUACACAGCGUGGCAAAGUGGCUGUGGCUAGACUGCC | 0.03
33 | GGCAGAGCUCAACACAGCGUGGCAAAGUGACUCUGGCUAGACUGCC | 0.07
34 | GGCCGAGCUCAACACAGCGUGGCAAAGUGGCAGUGGCUAGACUGCC | 0.18
35 | GGCAGAGCUCAACACAGCGUGGCAAAUUGGCUGUGGCUAGACUGCU | 1.05
36 | GGCAGAGCUCAACACAGCGUGGCAAAGUGGCUGUGGAUAGACUGCA | 0.05
37 | GGCAGAGCUCAACACAGCGUGGCAAAGUGGAUGUGGCUAAACUGCC | 0.04
38 | GGCAGAGCUCAACACAACGUGGUAAAGUGGCUGUGGCUAGACUGCC | 0.22
39 | GGCAGAGCUCAACACAGCGUGGCAAAGUGGCUGUGGCUACACUGCA | 0.1
40 | GGCAGAGCUCAACACAGCGUGGCAAAGUGGGUGUGGCUAGCCUGCC | 0.05
41 | GGCAGAGCGCAACACAGCGUGUCAAAGUGGCUGUGGCUAGACUGCC | 0.19
42 | GGCAGAUCUUAACACAGCGUGGCAAAGUGGCUGUGGCUAGACUGCC | 0.04
43 | GGCAGAGCUCAACACACCGUGGCACAGUGGCUGUGGCUAGACUGCC | 0.51
44 | GACAGAGCUCAACACAGCGUGGCAAAGUGGCUGUGGCUAGAAUGCC | 0.36
45 | GGCAGAGCUCAACACAGCGUGGCAACGUGGCCGUGGCUAGACUGCC | 0.24
46 | GGCAGAGGUCAACACAGCGUGGCAAAUUGGCUGUGGCUAGACUGCC | 0.11

Row | Variant | self-cleavage
47 | GGCAGAGCUCAACACAGCGUGGCAGAUUGGCUGUGGCUAGACUGCC | 0.48
48 | AGCAGAGCUCAACACAGCGUGGCAAAGUGUCUGUGGCUAGACUGCC | 1.59
49 | GGCAGAGCUCAACAAAGAGUGGCAAAGUGGCUGUGGCUAGACUGCC | 0.04
50 | GGCAGAGCUCAACACAGCGUGGCAAAGUGGCUGUUGCUAGACGGCC | 0.07
51 | GGCCGAGCUCAACACAGCGUGGCACAGUGGCUGUGGCUAGACUGCC | 0.06
52 | GGCAGAGCUCAACCCAGCGUGGCAAAGUGGCUGUGGCUAGAGUGCC | 0.07
53 | GGCAGACCUCAACACAGCGCGGCAAAGUGGCUGUGGCUAGACUGCC | 0.15
54 | GGCAGAGCUCAACACAGCUCGGCAAAGUGGCUGUGGCUAGACUGCC | 0.76
55 | CGCAGAGCUCAACACAGCGUGGCAAAGUGGCUGCGGCUAGACUGCC | 0.03
56 | GGCAAAGCUCAACACAGCGUGGCAACGUGGCUGUGGCUAGACUGCC | 0.18
57 | GGCUGAGCUCAACACACCGUGGCAAAGUGGCUGUGGCUAGACUGCC | 0.06
58 | GGCAGAUCUCAACACAGCGUGGCAUAGUGGCUGUGGCUAGACUGCC | 0.1
59 | GGCAGAGCUCAACACAGCGUGGCAAAGUUGCUGUGGCUAGUCUGCC | 0.9
60 | GGCAGAGCUCAACACAGCGUGGCAAAGUUGCUGUGGCUAGCCUGCC | 0.05
61 | GGCAGAGCUCAACACAGCGUGGCAAAGAGGGUGUGGCUAGACUGCC | 0.13
62 | GGCAGACCUCAACACAGCGUGGCAAAGUGGCUGUGACUAGACUGCC | 0.2
63 | GGCAGAGCUCAACACAGCGUGGCAAAGUGGCUGUGGCUACAGUGCC | 0.1
64 | GGCAGAGCUAAACACAGCGUGCCAAAGUGGCUGUGGCUAGACUGCC | 0.03
65 | GGCAGAGCUCAACACAGCGAGGCAAAGAGGCUGUGGCUAGACUGCC | 0.55
66 | GGCAGAGCUCAACACAGCGUGGCAACGUGGCUGUGGCUAAACUGCC | 0.12
67 | GGCAGAGCUCAACACAGCGUGGCAAAGUGUCCGUGGCUAGACUGCC | 0.23
68 | GGCAGAGCUCAACACAGCGUGGCAUAGUGGCUGUGGCUAAACUGCC | 0.18
69 | GGCAGAGCUCAACACAGCGUGGCAACGUGGCUCUGGCUAGACUGCC | 0.07

Row | Variant | self-cleavage
70 | GCCAGAGCUCAACACAGCUUGGCAAAGUGGCUGUGGCUAGACUGCC | 0.11
71 | GGCAAAGCUCAACACAGCGUGGCAAAGUGGCUGUGGCUAGACUGCA | 0.11
72 | GGCAGAGCUCAACACAGCGUGGCAAAGCGGCUGUGGCUAGACCGCC | 0.12
73 | GGCCGAGCUCAACACAGCCUGGCAAAGUGGCUGUGGCUAGACUGCC | 0.07
74 | GGCGGAGCUCAACACUGCGUGGCAAAGUGGCUGUGGCUAGACUGCC | 0.16
75 | GGCAGAGCUCAACACAGCGUGGCAAAGUGGCUGUGCGUAGACUGCC | 0.07
76 | GGCAGAGCUCAACACAGCCUGGCAAAGUGGCUGUGGCUAGAGUGCC | 0.01
77 | GGCAGAGCUCAACACAGCGUGGCAAAGUGGCUAUGGCUAGAUUGCC | 0.14
78 | GGCACAGCUCAACACAGCGUGGCAAAGUGGCAGUGGCUAGACUGCC | 0.06
79 | GGCAGAGUUCAACACAGCGUGGCAAAGUGGCCGUGGCUAGACUGCC | 0.12
80 | GGCAGAGCUCAACACAGCGUGGCAAAGCGGCUGUGGCUAGACUGUC | 1.88
81 | GGCAGAGCUCAACAGAGCCUGGCAAAGUGGCUGUGGCUAGACUGCC | 0.13
82 | GGCAGAGCUCAACACAGCGUGGCAAAGUGGCUGUGGCUGGACUGCG | 0.08
83 | GGCAGAGCUCAACAUAGCGUGGCAAACUGGCUGUGGCUAGACUGCC | 0.87
84 | UGCAGCGCUCAACACAGCGUGGCAAAGUGGCUGUGGCUAGACUGCC | 0.51
85 | GGAAGAGCUCAACACAGCGUGGCAAAGUGGCUGUCGCUAGACUGCC | 0.18
86 | GGCAGAGCUCCACACAGCGUGGCAAAGUGGCUGUGACUAGACUGCC | 0.04
87 | GGCAGGGCUCAACACAGCGUGGCAAAGUCGCUGUGGCUAGACUGCC | 0.07
88 | GGCAGAGCUCAACACAGCAUGGCAAAGGGGCUGUGGCUAGACUGCC | 1.04
89 | GGCAGUGCUCAACACAGCGUGGCAAAGUGGCUGUCGCUAGACUGCC | 0.16
90 | GGCAGACCUUAACACAGCGUGGCAAAGUGGCUGUGGCUAGACUGCC | 0.04
91 | GGCAGAGCUCAACACAGCGUGGCAAAGUGGCGGUGGCUAGACUGCG | 0.1
92 | GGAAGAGCUCAACACAGCGUGGCAAAGUGGCUGUGGCUAGAGUGCC | 0.08

Row | Variant | self-cleavage
93 | GGCAGAGCUCAACACAGCCUGGCAAAGUGGCUGCGGCUAGACUGCC | 1.22
94 | GGCAAAGCUCAACACAGCGUGGCAAAGUGGGUGUGGCUAGACUGCC | 0.05
95 | GGCAGAGCUCAAGACAGCGUGGUAAAGUGGCUGUGGCUAGACUGCC | 0.46
96 | GGCAGAGCUCAAUACAGCGUGGCAAAGUGGCUGUGGCUAGACAGCC | 0.1
97 | GGCAAAGCUCAAGACAGCGUGGCAAAGUGGCUGUGGCUAGACUGCC | 0.08
98 | CGCAGAGCUCAACACAGCGAGGCAAAGUGGCUGUGGCUAGACUGCC | 0.06
99 | GGCAGAGGUCAACACAGCGUGGCAAAGUGGCUGUGGCUAGUCUGCC | 0.25
100 | GGCAGAGCCCAACACACCGUGGCAAAGUGGCUGUGGCUAGACUGCC | 0.04
101 | GGCAUAGCUCAACACAGCGUGGCAAAGUGCCUGUGGCUAGACUGCC | 0.05
102 | GGCAGAGCUCAACCCAGCGUGGCCAAGUGGCUGUGGCUAGACUGCC | 0.11
103 | GGCAGAACUCAACACAGGGUGGCAAAGUGGCUGUGGCUAGACUGCC | 0.19
104 | GGCAGAGCUCAACACAGCGUGGCAAAGUGGCUGUGGCUAGAUUGCG | 0.19
105 | GGCAGAGCUCAACACAGCGGGGCAAAGUGGCCGUGGCUAGACUGCC | 0.06
106 | GGCAGAGCUCAACACAGCGUGGCAAAGUAGCUGUGCCUAGACUGCC | 0.09
107 | GGUAGAGCUCAACACAGCGUGGCAAAGUGGCUGUGGCUAGACUGCU | 0.21
108 | GGCAGAGCUCAACACAGCGUGGCAUAGUGACUGUGGCUAGACUGCC | 1.17
109 | GGCAGAGCUCAACACACCGUGGCAAAGCGGCUGUGGCUAGACUGCC | 0.36
110 | GGCAGAGCUAAACACAGCGUGGCAAAGUGGCUGCGGCUAGACUGCC | 0.04
111 | GGCAGCGCUCAACACAGCGUGGCAAACUGGCUGUGGCUAGACUGCC | 0.57
112 | GGCCGAGCUCAACACAGCGUGGCAAAGUAGCUGUGGCUAGACUGCC | 0.07
